Source: paper PMC5923229

Experiments:
[1] = target: H46R/H48Q SOD1 artificial copper site mutant (UniProt P00441); assay: native MS; nanoESI of SOD1 at different protein concentrations in 200 mM NH4OAc (pH 6.8), gentle conditions; monomer and dimer signal compared; dimer to monomers
[2] = target: H46R/H48Q SOD1 with ebselen conjugated at Cys111 (UniProt P00441); assay: as above

Substance | Kd [1] | Kd [2]
H46R/H48Q SOD1 artificial copper site mutant (from UniProt P00441 2-154) (enzyme) | 5300 nM | –
H46R/H48Q SOD1 with ebselen conjugated at Cys111 (from UniProt P00441 2-154) (enzyme) | – | 220 nM
